Data published in the supplement of paper PMC10065799, “High-throughput profiling of sequence recognition by tyrosine kinases and SH2 domains using bacterial peptide display” (eLife, 2023).

Columns and labels:
c-Abl (mouse) = test: phosphorylation enrichment, bacterial display (enrichment ratio); higher = better substrate or ligand; peptides without Tyr show the background
EPHB2 = EPHB2 (UniProt P29323); test: as above
c-Src = test: as above
Jak2 = Jak2 (UniProt O60674); test: as above
AncSZ = test: as above
FGFR1 = FGFR1 (UniProt P11362); test: as above
Hck = Hck (UniProt P08631); test: as above
Hck, sequence (P08631 whole entry, looked up): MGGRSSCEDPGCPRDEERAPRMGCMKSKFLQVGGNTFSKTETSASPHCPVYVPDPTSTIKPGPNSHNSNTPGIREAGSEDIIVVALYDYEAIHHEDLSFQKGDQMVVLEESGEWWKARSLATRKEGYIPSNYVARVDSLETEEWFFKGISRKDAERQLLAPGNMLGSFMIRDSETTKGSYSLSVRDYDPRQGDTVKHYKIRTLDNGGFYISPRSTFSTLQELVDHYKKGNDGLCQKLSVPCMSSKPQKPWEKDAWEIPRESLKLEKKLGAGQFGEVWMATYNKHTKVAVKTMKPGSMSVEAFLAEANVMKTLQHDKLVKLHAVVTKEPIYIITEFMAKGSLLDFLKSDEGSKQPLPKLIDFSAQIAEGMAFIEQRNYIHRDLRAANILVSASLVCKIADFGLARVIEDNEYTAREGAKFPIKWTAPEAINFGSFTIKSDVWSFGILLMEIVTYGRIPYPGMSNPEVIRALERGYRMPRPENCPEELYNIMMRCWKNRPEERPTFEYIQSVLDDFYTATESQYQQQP

EPHB1 = EPHB1 (UniProt P54762); test: as above
EPHB1, sequence (P54762 whole entry, looked up): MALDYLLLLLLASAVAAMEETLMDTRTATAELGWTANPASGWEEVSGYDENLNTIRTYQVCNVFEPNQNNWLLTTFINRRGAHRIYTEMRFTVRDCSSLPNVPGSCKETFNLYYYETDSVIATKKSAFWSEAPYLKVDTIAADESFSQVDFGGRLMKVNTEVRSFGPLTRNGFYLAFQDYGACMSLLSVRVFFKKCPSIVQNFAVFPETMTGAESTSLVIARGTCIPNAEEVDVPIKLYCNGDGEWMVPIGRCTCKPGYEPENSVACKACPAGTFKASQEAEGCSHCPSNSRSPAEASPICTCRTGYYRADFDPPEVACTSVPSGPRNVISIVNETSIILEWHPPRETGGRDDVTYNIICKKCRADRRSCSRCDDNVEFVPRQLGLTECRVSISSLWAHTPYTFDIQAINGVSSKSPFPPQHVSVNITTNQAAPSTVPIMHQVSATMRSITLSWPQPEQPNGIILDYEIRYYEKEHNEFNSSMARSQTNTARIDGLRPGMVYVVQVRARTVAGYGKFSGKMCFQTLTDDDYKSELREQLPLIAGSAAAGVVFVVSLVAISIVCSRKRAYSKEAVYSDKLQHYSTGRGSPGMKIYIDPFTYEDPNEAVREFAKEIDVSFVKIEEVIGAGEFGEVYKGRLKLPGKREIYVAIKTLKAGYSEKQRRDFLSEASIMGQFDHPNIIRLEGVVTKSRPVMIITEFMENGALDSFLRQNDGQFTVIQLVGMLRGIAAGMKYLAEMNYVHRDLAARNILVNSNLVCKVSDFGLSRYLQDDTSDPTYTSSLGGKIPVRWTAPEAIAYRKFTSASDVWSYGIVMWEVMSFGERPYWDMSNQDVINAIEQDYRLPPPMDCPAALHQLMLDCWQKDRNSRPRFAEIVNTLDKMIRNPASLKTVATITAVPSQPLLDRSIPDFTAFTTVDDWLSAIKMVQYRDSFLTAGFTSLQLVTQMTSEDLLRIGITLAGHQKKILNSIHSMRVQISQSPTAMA

Fes = Fes (UniProt P07332); test: as above
Fes, sequence (P07332 whole entry, looked up): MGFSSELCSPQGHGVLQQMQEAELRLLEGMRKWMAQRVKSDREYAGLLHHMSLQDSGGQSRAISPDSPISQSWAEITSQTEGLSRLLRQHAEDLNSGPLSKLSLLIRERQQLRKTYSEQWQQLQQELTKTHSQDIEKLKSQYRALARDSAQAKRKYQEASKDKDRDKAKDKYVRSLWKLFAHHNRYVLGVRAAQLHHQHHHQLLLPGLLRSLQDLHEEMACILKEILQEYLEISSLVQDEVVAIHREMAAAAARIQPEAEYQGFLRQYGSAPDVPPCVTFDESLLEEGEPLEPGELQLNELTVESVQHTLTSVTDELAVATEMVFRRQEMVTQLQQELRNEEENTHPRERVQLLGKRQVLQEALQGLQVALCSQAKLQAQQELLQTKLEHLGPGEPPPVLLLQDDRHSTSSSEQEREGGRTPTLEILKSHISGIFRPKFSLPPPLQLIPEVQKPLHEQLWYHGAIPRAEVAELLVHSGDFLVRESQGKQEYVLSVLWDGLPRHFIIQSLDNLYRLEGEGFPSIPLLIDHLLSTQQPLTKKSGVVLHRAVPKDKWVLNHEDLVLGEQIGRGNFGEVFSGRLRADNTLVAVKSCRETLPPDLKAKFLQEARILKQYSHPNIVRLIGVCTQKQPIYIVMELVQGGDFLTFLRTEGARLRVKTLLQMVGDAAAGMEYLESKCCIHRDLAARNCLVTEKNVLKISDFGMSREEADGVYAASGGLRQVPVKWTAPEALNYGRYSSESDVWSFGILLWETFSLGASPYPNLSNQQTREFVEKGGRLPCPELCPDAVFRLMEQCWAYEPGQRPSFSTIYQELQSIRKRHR

FGFR3 = FGFR3 (UniProt P22607); test: as above
Fyn = Fyn (UniProt P06241); test: as above
Fyn, sequence (P06241 whole entry, looked up): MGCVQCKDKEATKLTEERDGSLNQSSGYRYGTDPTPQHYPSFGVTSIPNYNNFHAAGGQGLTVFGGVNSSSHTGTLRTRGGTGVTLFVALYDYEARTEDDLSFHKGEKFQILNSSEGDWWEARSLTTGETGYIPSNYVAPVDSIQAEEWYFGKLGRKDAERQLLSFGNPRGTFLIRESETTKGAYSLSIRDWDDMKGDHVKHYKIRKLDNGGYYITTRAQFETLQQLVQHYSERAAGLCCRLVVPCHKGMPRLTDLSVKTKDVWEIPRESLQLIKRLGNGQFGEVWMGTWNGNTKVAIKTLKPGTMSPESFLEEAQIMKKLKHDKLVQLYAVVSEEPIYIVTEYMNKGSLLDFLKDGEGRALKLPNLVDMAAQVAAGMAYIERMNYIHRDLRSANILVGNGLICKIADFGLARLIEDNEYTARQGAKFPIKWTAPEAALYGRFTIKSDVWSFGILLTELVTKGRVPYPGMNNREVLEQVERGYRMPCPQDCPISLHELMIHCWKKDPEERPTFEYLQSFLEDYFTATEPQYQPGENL

MERTK = MERTK (UniProt Q12866); test: as above
Fer (mouse) = test: as above
SHP2-C SH2 = test: SH2 binding enrichment of the phosphorylated peptide, bacterial display (enrichment ratio); higher = better substrate or ligand; peptides without Tyr show the background
Grb2 SH2 = Grb2 SH2 (UniProt P62993); test: as above
c-Src SH2 = test: as above
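Wherever SH2 binding enrichment of the phosphorylated peptide, bacterial display is given: peptide library displayed on the E. coli surface as eCPX fusions, selected cells deep-sequenced, score is each peptide's frequency after selection divided by its frequency in the input.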
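Wherever phosphorylation enrichment, bacterial display is given: 11-residue human phosphosite peptides and single-mutation variants displayed on the E. coli surface, counted by deep sequencing, each peptide's frequency after selection divided by its frequency in the unselected input library; frequency after pTyr selection over input frequency; kinase dosed for 20-30% of maximal phosphorylation in three min.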

EPHB2, sequence (P29323 whole entry, looked up): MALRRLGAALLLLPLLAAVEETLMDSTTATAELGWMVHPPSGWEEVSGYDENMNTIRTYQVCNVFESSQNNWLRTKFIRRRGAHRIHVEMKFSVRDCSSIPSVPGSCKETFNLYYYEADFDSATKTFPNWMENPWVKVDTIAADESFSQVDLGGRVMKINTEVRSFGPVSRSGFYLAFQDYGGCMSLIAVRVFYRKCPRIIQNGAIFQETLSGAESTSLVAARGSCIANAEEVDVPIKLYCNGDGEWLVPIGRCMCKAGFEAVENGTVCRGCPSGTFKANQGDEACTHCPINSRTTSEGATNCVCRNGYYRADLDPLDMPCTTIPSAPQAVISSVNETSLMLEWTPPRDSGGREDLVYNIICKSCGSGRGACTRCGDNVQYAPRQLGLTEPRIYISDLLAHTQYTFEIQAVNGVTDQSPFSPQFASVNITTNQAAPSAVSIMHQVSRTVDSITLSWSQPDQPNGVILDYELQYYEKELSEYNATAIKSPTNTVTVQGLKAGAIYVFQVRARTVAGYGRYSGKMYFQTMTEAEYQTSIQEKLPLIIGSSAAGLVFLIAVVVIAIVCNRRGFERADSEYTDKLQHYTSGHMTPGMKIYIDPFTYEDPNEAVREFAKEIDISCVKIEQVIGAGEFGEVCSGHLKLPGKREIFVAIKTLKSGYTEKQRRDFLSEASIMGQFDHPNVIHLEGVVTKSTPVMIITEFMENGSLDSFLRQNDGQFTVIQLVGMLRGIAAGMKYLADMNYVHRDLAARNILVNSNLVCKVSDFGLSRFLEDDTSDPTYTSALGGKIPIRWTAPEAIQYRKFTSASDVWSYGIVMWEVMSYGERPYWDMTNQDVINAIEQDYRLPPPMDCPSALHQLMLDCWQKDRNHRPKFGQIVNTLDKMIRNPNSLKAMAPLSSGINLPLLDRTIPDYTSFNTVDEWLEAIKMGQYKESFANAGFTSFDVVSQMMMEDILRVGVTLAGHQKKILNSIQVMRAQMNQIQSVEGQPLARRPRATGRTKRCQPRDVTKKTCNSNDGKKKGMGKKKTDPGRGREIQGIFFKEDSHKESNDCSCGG
Jak2, sequence (O60674 whole entry, looked up): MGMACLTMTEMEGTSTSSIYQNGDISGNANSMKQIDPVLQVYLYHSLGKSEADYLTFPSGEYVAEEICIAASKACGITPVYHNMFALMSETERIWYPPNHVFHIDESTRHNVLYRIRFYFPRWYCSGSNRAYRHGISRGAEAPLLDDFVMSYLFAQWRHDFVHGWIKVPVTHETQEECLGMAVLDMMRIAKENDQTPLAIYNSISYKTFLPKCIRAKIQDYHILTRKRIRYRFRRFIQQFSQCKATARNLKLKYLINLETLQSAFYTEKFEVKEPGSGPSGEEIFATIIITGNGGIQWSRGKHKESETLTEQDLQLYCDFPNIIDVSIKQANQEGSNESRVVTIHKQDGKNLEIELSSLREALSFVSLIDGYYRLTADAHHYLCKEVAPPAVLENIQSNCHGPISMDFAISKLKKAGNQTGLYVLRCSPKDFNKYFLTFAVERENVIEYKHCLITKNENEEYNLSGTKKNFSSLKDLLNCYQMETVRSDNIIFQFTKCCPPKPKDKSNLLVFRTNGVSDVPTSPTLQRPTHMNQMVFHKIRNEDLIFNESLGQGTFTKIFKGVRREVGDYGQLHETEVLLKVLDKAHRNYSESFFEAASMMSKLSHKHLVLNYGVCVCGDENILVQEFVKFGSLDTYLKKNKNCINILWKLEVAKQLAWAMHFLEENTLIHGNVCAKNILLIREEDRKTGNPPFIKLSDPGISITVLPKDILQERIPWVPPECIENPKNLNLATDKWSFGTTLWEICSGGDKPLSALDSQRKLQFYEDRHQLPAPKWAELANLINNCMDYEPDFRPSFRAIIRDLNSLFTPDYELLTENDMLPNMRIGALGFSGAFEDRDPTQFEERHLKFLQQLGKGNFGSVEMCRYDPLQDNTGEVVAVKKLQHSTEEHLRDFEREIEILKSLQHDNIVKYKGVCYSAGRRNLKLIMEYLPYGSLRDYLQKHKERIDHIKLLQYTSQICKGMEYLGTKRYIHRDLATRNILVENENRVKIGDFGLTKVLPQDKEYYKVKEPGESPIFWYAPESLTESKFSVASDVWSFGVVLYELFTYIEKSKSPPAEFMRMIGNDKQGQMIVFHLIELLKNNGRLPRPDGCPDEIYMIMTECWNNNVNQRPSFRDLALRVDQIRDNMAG

| Sequence | phosphorylation enrichment (c-Abl (mouse)) | phosphorylation enrichment (EPHB2) | phosphorylation enrichment (c-Src) | phosphorylation enrichment (Jak2) | phosphorylation enrichment (AncSZ) | phosphorylation enrichment (FGFR1) | phosphorylation enrichment (Hck) | phosphorylation enrichment (EPHB1) | phosphorylation enrichment (Fes) | phosphorylation enrichment (FGFR3) | phosphorylation enrichment (Fyn) | phosphorylation enrichment (MERTK) | phosphorylation enrichment (Fer (mouse)) | SH2 binding enrichment (SHP2-C SH2) | SH2 binding enrichment (Grb2 SH2) | SH2 binding enrichment (c-Src SH2) |
| --- | --- | --- | --- | --- | --- | --- | --- | --- | --- | --- | --- | --- | --- | --- | --- | --- |
| SVVMPYEPPEV [TP53_Y220_V218M] | 0.66 | 0.595 | 0.482 | 0.897 | 1.27 | 0.559 | 0.481 | 0.559 | 1.12 | 0.674 | 0.56 | 0.492 | 0.549 | 0.738 | 0.877 | 1.06 |
| CTSIHYNYMCN [TP53_Y234_T231S] | 0.535 | 0.63 | 0.5 | 0.733 | 0.842 | 0.67 | 0.514 | 0.99 | 0.805 | 0.591 | 0.42 | 0.448 | 0.676 | 2.73 | 1.2 | 6.03 |
| IRRWVYPLTPE [EIF2B5_Y319] | 0.464 | 0.522 | 0.437 | 0.732 | 0.934 | 0.451 | 0.481 | 0.406 | 0.943 | 0.613 | 0.514 | 0.476 | 0.559 | 0.716 | 0.811 | 0.517 |
| RDGDRYFKGIV [DCX_Y64_N60D] | 0.485 | 0.427 | 0.382 | 0.609 | 0.427 | 0.574 | 0.437 | 0.343 | 1.1 | 0.491 | 0.308 | 0.374 | 0.316 | 0.606 | 1.16 | 0.537 |
| AFLLLCFNDTH [BMP15_Y235_Y235C] | 1.01 | 0.696 | 0.413 | 1.63 | 1.42 | 0.501 | 0.561 | 0.724 | 1.44 | 0.918 | 0.563 | 0.484 | 0.663 | 1 | 1.01 | 0.704 |
| SDFFAYSPVRE [H6PD_Y449_YF] | 0.615 | 0.591 | 0.573 | 1.01 | 0.928 | 0.422 | 0.68 | 0.614 | 1.02 | 0.675 | 0.514 | 0.473 | 0.821 | 1.06 | 0.798 | 1.37 |
| PGIRMYRVQFN [LRFN1_Y454_Q455R_YF] | 0.512 | 0.642 | 0.607 | 0.844 | 1.35 | 0.622 | 0.485 | 0.468 | 1.14 | 0.618 | 0.656 | 0.652 | 0.611 | 0.606 | 0.796 | 0.469 |
| CRWKRYQCSHD [GDPD5_Y30_R32C] | 0.41 | 0.493 | 0.448 | 0.612 | 0.559 | 0.488 | 0.529 | 0.458 | 0.666 | 0.562 | 0.52 | 0.384 | 0.425 | 0.583 | 0.656 | 0.494 |
| WTAHSYRMGST [ARHGEF7_Y785] | 0.437 | 0.407 | 0.374 | 0.432 | 0.642 | 0.496 | 0.432 | 0.46 | 0.659 | 0.47 | 0.479 | 0.37 | 0.482 | 0.651 | 0.838 | 0.538 |
| ISKKIYDTIHD [CTNNA3_Y614] | 0.452 | 0.516 | 0.579 | 0.582 | 0.555 | 0.433 | 0.742 | 0.351 | 0.587 | 0.357 | 0.584 | 0.445 | 0.421 | 0.675 | 0.746 | 5.91 |
| NREGVYTVFAP [TGFBI_Y537] | 1.57 | 2.04 | 8.95 | 0.862 | 1.54 | 0.885 | 10 | 2.35 | 1.11 | 1.07 | 13.3 | 11.4 | 8.74 | 0.516 | 0.688 | 0.604 |
| LLKANYELLNA [POLR3A_Y714_K713N] | 0.949 | 0.804 | 0.814 | 0.857 | 0.975 | 0.457 | 0.459 | 1.28 | 0.865 | 0.78 | 0.431 | 0.976 | 0.551 | 0.973 | 0.834 | 1.51 |
| TVSSDYLHPQY [CCPG1_Y569_F566S] | 0.521 | 0.531 | 0.355 | 0.536 | 1.28 | 0.528 | 0.407 | 0.43 | 0.681 | 0.54 | 0.365 | 0.315 | 0.442 | 0.88 | 1.21 | 0.762 |
| RRNTPYSQTMK [TET2_Y819_S817T] | 0.422 | 0.365 | 0.44 | 0.708 | 0.55 | 0.273 | 0.367 | 0.252 | 0.626 | 0.431 | 0.428 | 0.503 | 0.512 | 1.12 | 1.23 | 0.611 |
| DPLLTYWFPPK [LMNA_Y481_R482W] | 11.6 | 14.8 | 6.1 | 5.74 | 2.78 | 8.47 | 7.34 | 12.6 | 1.13 | 6.67 | 6.5 | 9.17 | 0.933 | 0.797 | 1.19 | 0.67 |
| FLAVGYHKPRI [IDS_Y225_H229R] | 0.481 | 0.44 | 0.305 | 0.502 | 0.638 | 0.379 | 0.374 | 0.477 | 0.838 | 0.5 | 0.426 | 0.272 | 0.402 | 1.6 | 1.61 | 1.64 |
| EKQARYEIVEE [CDH5_Y223_V227E] | 0.749 | 0.565 | 0.521 | 1.09 | 1.2 | 0.506 | 0.667 | 0.582 | 1.24 | 0.798 | 0.542 | 0.644 | 0.56 | 0.921 | 0.897 | 18.8 |

| Sequence | phosphorylation enrichment (c-Abl (mouse)) | phosphorylation enrichment (EPHB2) | phosphorylation enrichment (c-Src) | phosphorylation enrichment (Jak2) | phosphorylation enrichment (AncSZ) | phosphorylation enrichment (FGFR1) | phosphorylation enrichment (Hck) | phosphorylation enrichment (EPHB1) | phosphorylation enrichment (Fes) | phosphorylation enrichment (FGFR3) | phosphorylation enrichment (Fyn) | phosphorylation enrichment (MERTK) | phosphorylation enrichment (Fer (mouse)) | SH2 binding enrichment (SHP2-C SH2) | SH2 binding enrichment (Grb2 SH2) | SH2 binding enrichment (c-Src SH2) |
| --- | --- | --- | --- | --- | --- | --- | --- | --- | --- | --- | --- | --- | --- | --- | --- | --- |
| QSKGIYFVQLE [MGAT4B_Y262_YF] | 1.63 | 2.44 | 1.54 | 1.88 | 1.51 | 1.09 | 0.936 | 0.972 | 1.71 | 1.41 | 1.1 | 2.38 | 0.713 | 0.854 | 0.96 | 0.658 |
| GDPVQYNRTTD [MLPH_Y454] | 0.78 | 0.551 | 0.452 | 0.959 | 0.705 | 0.465 | 0.381 | 0.521 | 1.04 | 0.7 | 0.412 | 0.429 | 0.435 | 0.738 | 0.812 | 0.459 |
| TLQWMYGCDVG [HLA-B_Y123_S121W] | 1.05 | 0.661 | 0.354 | 1.22 | 1.2 | 0.396 | 0.485 | 0.744 | 1.34 | 0.814 | 0.437 | 0.38 | 0.566 | 0.657 | 0.772 | 0.446 |
| TAGFSYEKWEI [TEC_Y360] | 0.694 | 0.577 | 0.463 | 1 | 1.52 | 0.533 | 0.536 | 0.472 | 1.21 | 0.72 | 0.503 | 0.549 | 1.46 | 0.701 | 0.706 | 0.484 |
| SECCKYKIDNP [OSMR_Y689] | 0.539 | 0.416 | 0.46 | 0.658 | 0.642 | 0.756 | 0.381 | 0.464 | 0.786 | 0.488 | 0.411 | 0.419 | 0.407 | 0.393 | 0.94 | 0.472 |
| KNNDGNIDYAE [MCFD2_Y135_Y135N] | 0.62 | 0.53 | 0.388 | 0.776 | 1.13 | 0.501 | 0.524 | 0.572 | 1.13 | 0.916 | 0.462 | 0.479 | 0.453 | 0.792 | 1.05 | 0.694 |
| SYNNKYGMVAQ [APOB_Y276_K273N] | 0.61 | 0.474 | 0.467 | 0.607 | 0.623 | 0.41 | 0.476 | 0.381 | 0.632 | 0.471 | 0.428 | 0.378 | 0.411 | 0.555 | 0.713 | 0.49 |
| FSGDCYRIQGR [DDR2_Y741_Y740C_YF] | 0.636 | 0.659 | 0.45 | 0.764 | 0.989 | 0.431 | 0.472 | 0.593 | 1.05 | 0.666 | 0.446 | 0.35 | 0.493 | 0.661 | 0.806 | 0.502 |
| ELAINYQEQAS [SLC9A9_Y591] | 0.504 | 0.469 | 0.403 | 0.832 | 0.923 | 0.522 | 0.643 | 0.526 | 0.869 | 0.674 | 0.539 | 0.416 | 0.524 | 0.556 | 0.905 | 0.536 |
| SVVVPSEPPEV [TP53_Y220_Y220S] | 0.74 | 0.642 | 0.449 | 0.851 | 0.971 | 0.503 | 0.484 | 0.598 | 1.12 | 0.755 | 0.511 | 0.431 | 0.426 | 0.958 | 1.03 | 0.577 |
| QNWELYSEGLG [CNKSR1_Y665_R662W] | 0.751 | 5.04 | 2.08 | 1.13 | 1.37 | 0.744 | 4.32 | 5.52 | 1.07 | 0.746 | 3.04 | 2.26 | 0.869 | 0.771 | 0.958 | 0.628 |
| YRVAGYKTQGG [TIA1_Y383_E384K] | 1.98 | 0.309 | 0.435 | 0.42 | 0.509 | 0.434 | 0.366 | 0.368 | 0.461 | 0.376 | 0.494 | 0.312 | 0.363 | 0.553 | 0.68 | 0.409 |
| PLRAFYLIARV [HLCS_Y635_D634Y_YF] | 3.67 | 1.46 | 2.27 | 5.18 | 3.67 | 1.07 | 0.866 | 1.02 | 4.68 | 1.84 | 0.92 | 1.33 | 1.26 | 0.738 | 0.996 | 0.6 |
| STEAIYRRFSK [SH3PXD2B_Y42_YF] | 1.2 | 0.293 | 0.45 | 0.353 | 0.431 | 0.493 | 0.379 | 0.334 | 0.486 | 0.408 | 0.506 | 0.372 | 0.402 | 0.553 | 0.812 | 0.472 |
| FLAVGYHKLHI [IDS_Y225_P228L] | 0.833 | 0.575 | 0.462 | 1.13 | 1.03 | 0.447 | 0.427 | 0.545 | 1.14 | 0.804 | 0.647 | 0.471 | 0.432 | 1.42 | 1.36 | 1.25 |
| AKKKMYSCKTK [AGXT_Y231_R233C] | 1.95 | 0.578 | 0.474 | 2.73 | 1.01 | 0.588 | 0.537 | 0.62 | 1.19 | 1.64 | 0.417 | 0.529 | 0.613 | 1.59 | 1.44 | 1.2 |
